Laboratory results reported in paper PMC10648341, “Cloning and Functional Characterization of NADPH-Cytochrome P450 Reductases in Aconitum vilmorinianum” (Molecules, 2023).

Tests used:
[1] = target: cytochrome c (UniProt P00004)
[2] = target: T1, CYP76AH1 (Salvia miltiorrhiza, UniProt S4UX02); assay: HPLC of yeast extracts, ferruginol formation; assay type: cell-based; conditions: miltiradiene made by host yeast YJ14; co-expressed AvCPR1, AvCPR2 or SmCPR1
T1 construct: ORF in pESC-His, co-expressed with AvCPR1 (also AvCPR2 or SmCPR1) in miltiradiene-producing yeast YJ14; with NADPH--cytochrome P450 reductase 1 (Aconitum vilmorinianum)
T1 sequence (S4UX02 1-495): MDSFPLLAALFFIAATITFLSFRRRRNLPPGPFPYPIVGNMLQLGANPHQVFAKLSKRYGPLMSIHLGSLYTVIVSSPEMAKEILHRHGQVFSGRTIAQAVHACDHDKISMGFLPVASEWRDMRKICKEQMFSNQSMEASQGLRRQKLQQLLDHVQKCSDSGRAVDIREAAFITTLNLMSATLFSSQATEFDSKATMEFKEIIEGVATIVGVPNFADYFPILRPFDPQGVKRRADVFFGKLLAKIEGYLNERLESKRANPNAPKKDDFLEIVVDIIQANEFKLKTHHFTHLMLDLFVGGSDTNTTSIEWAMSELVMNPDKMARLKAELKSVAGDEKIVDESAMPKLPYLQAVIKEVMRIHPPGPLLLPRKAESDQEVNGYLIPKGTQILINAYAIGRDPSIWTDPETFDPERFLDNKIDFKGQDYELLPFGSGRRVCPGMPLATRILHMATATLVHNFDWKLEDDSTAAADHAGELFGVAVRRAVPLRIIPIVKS

Chain of cytochrome c (P00004 whole entry): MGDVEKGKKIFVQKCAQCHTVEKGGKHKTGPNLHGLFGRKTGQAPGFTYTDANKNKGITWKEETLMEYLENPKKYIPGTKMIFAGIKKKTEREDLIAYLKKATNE

Row | Km for cytochrome c: steady-state reduction of cytochrome c (0-200 μM) by 4 μg recombinant enzyme with 100 μmol/L NADPH, absorbance at 550 nm, 100 mM Tris-HCl, 0.1 mM EDTA, pH 7.4, 25 °C [1] [μmol·L^−1] | Compound | HPLC of yeast extracts, ferruginol formation [2]
1 | 344 | truncated AvCPR1 (NADPH-cytochrome P450 reductase 1 of Aconitum vilmorinianum, without the N-terminal membrane-anchoring region) (enzyme) | –
2 | 78.1 | truncated AvCPR2 (NADPH-cytochrome P450 reductase 2 of Aconitum vilmorinianum, without the N-terminal membrane-anchoring region) (enzyme) | –
3 | – | CC(C)c1cc2c(cc1O)[C@@]1(C)CCCC(C)(C)[C@@H]1CC2 [ferruginol] | transgenic strains co-expressing AvCPRs or SmCPR with CYP76AH1 produced ferruginol
